Experiment [1] deals with CFP-tagged N-terminal Kv6.4 fragment (human). In words: FRET or BRET; acceptor (YFP) photobleaching FRET in HEK293 cells co-transfected with CFP- and YFP-tagged fragments in a 1:2 cDNA ratio, 48 h after transfection; only cells with YFP/CFP intensity ratio >1. In general terms: Bioluminescence resonance energy transfer reports proximity on the nanometre scale.
Experiment [2] has as its target CFP-tagged N-terminal Kv3.1 fragment (human). The description is as above.
For experiment [3], the target named is CFP-tagged C-terminal segment of Kv2.1 (human). The description is as above.
For experiment [4], the target named is CFP-tagged Kv6.4 C-terminus (human). The description is as above.
CFP-tagged Kv6.4 C-terminus (human), sequence (Q8TDN1 whole entry, the tested form may be a part): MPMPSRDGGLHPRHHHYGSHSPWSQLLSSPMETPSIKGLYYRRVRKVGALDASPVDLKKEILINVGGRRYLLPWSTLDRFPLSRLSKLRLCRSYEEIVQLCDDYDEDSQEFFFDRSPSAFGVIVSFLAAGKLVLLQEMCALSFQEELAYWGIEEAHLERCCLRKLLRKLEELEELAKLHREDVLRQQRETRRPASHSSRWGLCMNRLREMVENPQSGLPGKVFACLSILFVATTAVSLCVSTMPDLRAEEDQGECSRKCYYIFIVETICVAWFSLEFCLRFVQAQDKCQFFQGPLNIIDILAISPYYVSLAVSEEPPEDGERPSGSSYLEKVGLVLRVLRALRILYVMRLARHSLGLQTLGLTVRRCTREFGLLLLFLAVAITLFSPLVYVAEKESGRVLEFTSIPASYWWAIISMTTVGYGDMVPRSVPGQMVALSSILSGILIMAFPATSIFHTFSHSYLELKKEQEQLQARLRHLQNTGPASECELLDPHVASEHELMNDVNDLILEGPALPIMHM
In experiment [5] the target is CFP-tagged N-terminal Kv2.1 fragment (human). The description is as above.
Experiment [6] has as its target Kv2.1 subunit (unlabeled) (human) (UniProt Q14721).

CFP-tagged N-terminal Kv6.4 fragment (human), sequence (Q8TDN1 whole entry, the tested form may be a part): as above
YFP-tagged N-terminal Kv3.1 fragment (domain or fragment), sequence (P48547 whole entry, the tested form may be a part): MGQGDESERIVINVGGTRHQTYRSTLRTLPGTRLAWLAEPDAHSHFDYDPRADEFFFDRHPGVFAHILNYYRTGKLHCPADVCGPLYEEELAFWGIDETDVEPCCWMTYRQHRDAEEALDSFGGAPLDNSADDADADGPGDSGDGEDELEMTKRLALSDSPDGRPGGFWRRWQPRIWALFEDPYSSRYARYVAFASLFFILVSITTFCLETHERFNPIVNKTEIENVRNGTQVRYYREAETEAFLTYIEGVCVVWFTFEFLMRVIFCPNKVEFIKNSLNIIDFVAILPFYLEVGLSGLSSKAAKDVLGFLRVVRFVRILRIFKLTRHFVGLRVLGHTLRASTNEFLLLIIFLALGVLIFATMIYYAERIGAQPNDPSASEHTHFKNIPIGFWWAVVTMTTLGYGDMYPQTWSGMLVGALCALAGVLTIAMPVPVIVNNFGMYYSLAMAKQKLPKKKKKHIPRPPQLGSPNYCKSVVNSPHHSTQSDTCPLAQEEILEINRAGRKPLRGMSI
CFP-tagged N-terminal Kv3.1 fragment (human), sequence (P48547 whole entry, the tested form may be a part): as above

With “YFP-tagged N-terminal Kv3.1 fragment (domain or fragment)”, the FRET efficiency worked out at 9.6% in experiment [1] and 28.8% in experiment [2].

With “YFP-tagged N-terminal Kv2.1 fragment (domain or fragment)”, the FRET efficiency came to 21.3% in experiment [1], 8.3% in experiment [3], 8.7% in experiment [4] and 21.7% in experiment [5].

Regarding “Kv6.4(CKv3.1) chimera in which the C-terminus of Kv6.4 was replaced by the corresponding domain of Kv3.1”, in experiment [6], the midpoint of inactivation, V1/2, 1st component of the double Boltzmann fit (as of Kv2.1 homotetramers), whole-cell currents in HEK293 cells co-expressing Kv2.1 and Kv6.4(CKv3.1) is -24.3 mV; the midpoint of inactivation, V1/2, 2nd component of the double Boltzmann fit, whole-cell currents in HEK293 cells co-expressing Kv2.1 and Kv6.4(CKv3.1) is -71.1 mV.
